We go through one molecule from US20100209439A1 (FORERUNNER PHARMA RESEARCH, published 2010).

In the assay the target is T1, Recombinant human Prominin-1 with C-terminal FLAG-tag, forcedly expressed on DG44 cells (human, UniProt O43490 20-865).
T1 construct: whole, on cells; Expressed in DG44 cells; also called Prominin-1 recombinant protein; cells forcedly expressing Prominin-1; not shown: FLAG-tag artificially added to the C terminus
T1 sequence (looked up): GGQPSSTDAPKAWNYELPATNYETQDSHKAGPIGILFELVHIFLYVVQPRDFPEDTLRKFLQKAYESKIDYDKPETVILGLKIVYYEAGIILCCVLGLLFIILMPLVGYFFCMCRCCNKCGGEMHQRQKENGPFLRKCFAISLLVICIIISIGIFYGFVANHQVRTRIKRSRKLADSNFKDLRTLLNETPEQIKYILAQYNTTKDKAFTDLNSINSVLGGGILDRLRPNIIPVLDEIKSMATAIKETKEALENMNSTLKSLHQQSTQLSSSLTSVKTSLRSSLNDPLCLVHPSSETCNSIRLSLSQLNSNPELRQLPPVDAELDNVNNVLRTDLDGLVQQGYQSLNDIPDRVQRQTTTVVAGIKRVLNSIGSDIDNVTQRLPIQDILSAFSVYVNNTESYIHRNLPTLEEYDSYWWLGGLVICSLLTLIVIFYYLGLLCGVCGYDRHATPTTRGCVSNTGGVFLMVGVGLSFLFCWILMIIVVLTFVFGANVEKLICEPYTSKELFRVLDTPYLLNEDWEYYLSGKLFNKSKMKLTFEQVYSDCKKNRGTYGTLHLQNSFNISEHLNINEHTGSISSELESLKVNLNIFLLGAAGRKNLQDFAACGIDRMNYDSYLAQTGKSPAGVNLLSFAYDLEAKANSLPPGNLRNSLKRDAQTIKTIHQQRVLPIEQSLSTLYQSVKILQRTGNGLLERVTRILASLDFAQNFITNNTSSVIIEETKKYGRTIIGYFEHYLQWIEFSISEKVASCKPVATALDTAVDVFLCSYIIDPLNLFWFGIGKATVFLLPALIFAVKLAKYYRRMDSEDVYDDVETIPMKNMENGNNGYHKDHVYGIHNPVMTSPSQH
As to the kind of experiment: flow cytometry on DG44 cells forcedly expressing FLAG-tagged human Prominin-1. Background: Flow cytometry measures light scatter and fluorescence of single cells or particles in a stream.

B1: AC133.1 antibody (mouse IgG1, produced by hybridoma HB-12346) (antibody, V domains shown)
VH: QVQLQQSGAELVRPGASVKLSCKASGYTFSDFEMHWVKQTPVHGLEWIGDIDPGTGDTAYNLKFKGKATLTTDKSSSTAYMELRSLTSEDSAVYYCTLGAFVYWGQGTLVTVSA
VL: DVVVTQTPLSLPVSFGDQVSISCRSSQSLANSYGNTYLSWYLHKPGQSPQLLIYGISNRFSGVPDRFSGSGSGTDFTLKISTIKPEDLGMYYCLQGTHQPYTFGGGTKLEIKR
notes: The rest is mouse IgG1 heavy chain and Ig kappa light chain; Purified from hybridoma supernatant on Protein G; also called AC133 antibody; A133.1 antibody
As to B1, the binding result was “binds”.
